# Measured values: article PMC11291975, “Chemotherapy-induced acetylation of ACLY by NAT10 promotes its nuclear accumulation and acetyl-CoA production to drive chemoresistance in hepatocellular carcinoma” (Cell Death & Disease, 2024)
# T1: GST-ACLY (UniProt P53396 1-1101)
# T1 construct: ATP citrate lyase (ACLY), cloned into pGEX-4T1; also called GST-ACLY protein; source: E. coli BL21 (DE3), purified (Glutathione Sepharose 4B)
# T1 sequence (looked up): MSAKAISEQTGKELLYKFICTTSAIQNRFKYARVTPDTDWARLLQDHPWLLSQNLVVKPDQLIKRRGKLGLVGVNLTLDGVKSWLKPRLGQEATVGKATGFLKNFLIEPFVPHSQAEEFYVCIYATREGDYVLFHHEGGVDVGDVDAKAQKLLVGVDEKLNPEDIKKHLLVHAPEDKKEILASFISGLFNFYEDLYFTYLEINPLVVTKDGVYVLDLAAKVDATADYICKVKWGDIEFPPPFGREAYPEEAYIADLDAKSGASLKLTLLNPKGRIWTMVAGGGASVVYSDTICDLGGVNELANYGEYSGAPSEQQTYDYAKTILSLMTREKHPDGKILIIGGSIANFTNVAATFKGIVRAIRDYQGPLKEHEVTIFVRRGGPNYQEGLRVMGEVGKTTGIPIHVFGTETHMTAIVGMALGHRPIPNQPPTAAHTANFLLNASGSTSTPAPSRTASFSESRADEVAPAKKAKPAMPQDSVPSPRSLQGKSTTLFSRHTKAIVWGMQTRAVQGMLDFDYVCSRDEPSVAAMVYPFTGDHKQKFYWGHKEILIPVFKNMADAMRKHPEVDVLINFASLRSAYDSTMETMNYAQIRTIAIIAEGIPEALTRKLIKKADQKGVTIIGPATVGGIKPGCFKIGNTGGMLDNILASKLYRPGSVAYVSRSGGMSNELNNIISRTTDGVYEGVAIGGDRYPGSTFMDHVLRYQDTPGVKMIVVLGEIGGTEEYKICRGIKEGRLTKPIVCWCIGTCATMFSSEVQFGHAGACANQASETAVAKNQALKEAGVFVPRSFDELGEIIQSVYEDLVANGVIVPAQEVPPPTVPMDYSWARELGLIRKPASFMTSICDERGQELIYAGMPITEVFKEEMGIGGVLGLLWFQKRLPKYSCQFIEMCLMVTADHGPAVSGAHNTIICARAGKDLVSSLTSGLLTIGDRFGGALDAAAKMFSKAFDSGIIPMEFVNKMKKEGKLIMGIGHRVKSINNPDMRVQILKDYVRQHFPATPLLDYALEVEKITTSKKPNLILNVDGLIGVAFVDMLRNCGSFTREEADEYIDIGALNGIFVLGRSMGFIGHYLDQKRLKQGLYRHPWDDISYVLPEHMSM
# B1: Flag-NAT10-His (natural protein, UniProt Q9H0A0 1-1025, looked up)
# chain: MHRKKVDNRIRILIENGVAERQRSLFVVVGDRGKDQVVILHHMLSKATVKARPSVLWCYKKELGFSSHRKKRMRQLQKKIKNGTLNIKQDDPFELFIAATNIRYCYYNETHKILGNTFGMCVLQDFEALTPNLLARTVETVEGGGLVVILLRTMNSLKQLYTVTMDVHSRYRTEAHQDVVGRFNERFILSLASCKKCLVIDDQLNILPISSHVATMEALPPQTPDESLGPSDLELRELKESLQDTQPVGVLVDCCKTLDQAKAVLKFIEGISEKTLRSTVALTAARGRGKSAALGLAIAGAVAFGYSNIFVTSPSPDNLHTLFEFVFKGFDALQYQEHLDYEIIQSLNPEFNKAVIRVNVFREHRQTIQYIHPADAVKLGQAELVVIDEAAAIPLPLVKSLLGPYLVFMASTINGYEGTGRSLSLKLIQQLRQQSAQSQVSTTAENKTTTTARLASARTLYEVSLQESIRYAPGDAVEKWLNDLLCLDCLNITRIVSGCPLPEACELYYVNRDTLFCYHKASEVFLQRLMALYVASHYKNSPNDLQMLSDAPAHHLFCLLPPVPPTQNALPEVLAVIQVCLEGEISRQSILNSLSRGKKASGDLIPWTVSEQFQDPDFGGLSGGRVVRIAVHPDYQGMGYGSRALQLLQMYYEGRFPCLEEKVLETPQEIHTVSSEAVSLLEEVITPRKDLPPLLLKLNERPAERLDYLGVSYGLTPRLLKFWKRAGFVPVYLRQTPNDLTGEHSCIMLKTLTDEDEADQGGWLAAFWKDFRRRFLALLSYQFSTFSPSLALNIIQNRNMGKPAQPALSREELEALFLPYDLKRLEMYSRNMVDYHLIMDMIPAISRIYFLNQLGDLALSAAQSALLLGIGLQHKSVDQLEKEIELPSGQLMGLFNRIIRKVVKLFNEVQEKAIEEQMVAAKDVVMEPTMKTLSDDLDEAAKEFQEKHKKEVGKLKSMDLSEYIIRGDDEEWNEVLNKAGPNASIISLKSDKKRKLEAKQEPKQSKKLKNRETKNKKDMKLKRKK
# notes: N-acetyltransferase 10 (NAT10), cloned into pFast-Bac1 as Flag-NAT10-His; also called purified Flag-NAT10; source: baculovirus-infected sf9 cells, purified (Ni-NTA agarose)
# Biological target: T1, GST-ACLY
# Test: pull-down; GST-ACLY or GST-ACLY deletion mutants bound to Glutathione Sepharose 4B, incubated with purified Flag-NAT10; WB with anti-Flag
# Conditions: both partners purified
binder,measurement,value
B1,binding result,binds
